The values below come from CN116102649A (SHANGHAI INST OF BIOLOGICAL PRODUCTS CO LTD, dated 2023).

As a reminder, the EC50 is the concentration giving half of the maximal effect. Read a high EC50 as a less potent agent.

Assay [1] addresses T1, 人CLDN18.2 (claudin-18 isoform 2 [Homo sapiens], NP_001002026.1) (human).
T1 construct: Full-length gene cloned into pEGFP-N2 and stably expressed on HEK293 cells (HEK293-hCLDN18.2); also called hCLDN18.2; HEK293-hCLDN18.2
In words: flow cytometry on HEK293-hCLDN18.2 cells, MFI against concentration.

Assay [2] deals with T1, 人CLDN18.2 (claudin-18 isoform 2 [Homo …). In words: cell-based or functional assay.
Assay [3] has the same target. In words: cell-based or functional assay. This is another data set of the same source.
The target is the same in assay [4]. In words: cell ELISA on fixed HEK293-hCLDN18.2 cells. For orientation: An ELISA detects its analyte on a solid surface through an enzyme-linked reagent.
Assay [5] concerns the target T2, 人CLDN18.1 (claudin-18 isoform 1 precursor [Homo sapiens], NP_057453.1) (human, UniProt P56856 1-261).
T2 construct: Full-length gene in pEGFP-N2, stably expressed on HEK293 cells (HEK293-hCLDN18.1); also called hCLDN18.1; HEK293-hCLDN18.1
T2 sequence: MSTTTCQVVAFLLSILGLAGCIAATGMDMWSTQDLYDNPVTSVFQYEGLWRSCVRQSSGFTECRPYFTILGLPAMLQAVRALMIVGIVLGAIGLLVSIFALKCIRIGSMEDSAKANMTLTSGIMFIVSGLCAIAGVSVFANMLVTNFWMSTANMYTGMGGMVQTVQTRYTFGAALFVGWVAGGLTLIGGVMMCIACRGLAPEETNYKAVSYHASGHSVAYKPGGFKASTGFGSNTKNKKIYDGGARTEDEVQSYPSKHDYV
In words: flow cytometry on HEK293-hCLDN18.1 cells.

For assay [6], the target named is T1, 人CLDN18.2 (claudin-18 isoform 2 [Homo …). In words: cell ELISA on fixed NUGC4 cells (endogenous human CLDN18.2).

B1: 嵌合抗体ch782 (antibody, V domains shown)
VH: DVQLQESGPDLVKPSQSLSLTCTVTGYSITSGYSWHWIRQFPGNKLEWMGYIHYSDNTNYSPSLKSRISITRDTSKNQFFLQLNSVTTEDTATYYCARIYYGNSFVYWGQGTLVTVSA
VL: DIVMTQSPSSLTVTAGEKVTMSCKSSQSLLNSGNQKNYLTWYQQKPGQPPKLLIYWASTRESGVPDRFTGSGSGTDFTLTINSVQAEDLAVYYCQNDYFYPYTFGGGTKLEIK
Turning to B1, the values for the EC50 in assay [1], in assay [4] and in assay [6] were 0.81 µg/mL, 0.0173 µg/mL and 0.57 µg/mL, respectively. For the same molecule, in assay [2], the “CDC on HEK293-hCLDN18.2 cells (rabbit complement, CCK-8), EC50” value is 0.0309 µg/mL. Further, in assay [3], the “ADCC reporter gene assay (Jurkat/NFAT-luc+FcγRIIIa) on HEK293-hCLDN18.2 cells, EC50” value amounted to 0.0476 µg/mL. For the same molecule, the “相对结合活性 (relative to Ref.ch175)” value in assay [4] was 180%. Moreover, the binding result in assay [5] is listed as “no binding”.

B2: 嵌合抗体ch624 (antibody, V domains shown)
VH: QVQLQQPGAELVRPGASVKLSCKASGYSFTSYWMNWVKQRPGQGLEWIGMIHPSDSETRLNQKFKDKATLTVDKSSSTAYMQLSSPTSEDSAVYYCARTSYGNSFAYWGQGTLVTVSA
VL: DIVMTQSPSSLTVTAGEKVTMSCKSSQSLLNSGNQKNYLTWYQQKPGQPPKLLIYWASTRESGVPDRFTGSGSGTDFTLTISSVQAEDLAVYYCQNDYSYPFTFGSGTKLEIK
Consider B2, for which, in assay [4], the EC50 amounted to 0.0392 µg/mL and the “相对结合活性 (relative to Ref.ch175)” value is 79.3%. In addition, in assay [5], the binding result is reported as “no binding”.

B3: 人源化抗体hu782-HV (H1.2-V101A L2组合) (antibody, human IgG1, V domains shown)
VH: QVQLQESGPGLVKPSETLSLTCTVSGYSITSGYSWHWIRQPPGKGLEWMGYIHYSDNTNYAPSLKSRITISRDTSKNQFSLKLSSVTAADTAVYYCARIYYGNSFAYWGQGTLVTVSS
VL: DIVMTQSPDSLAVSLGERATINCKSSQSLLNSGNQKNYLTWYQQKPGQPPLLIYWASTRESGVPDRFSGSGSGTDFTLTISSLQAEDVAVYYCQNDYFYPYTFGGGTKLEIK
Consider B3, for which, in assay [2], the “ADCC reporter gene assay on HEK293-hCLDN18.2 cells, EC50” value was found to be 0.0709 µg/mL and the “CDC on HEK293-hCLDN18.2 cells (rabbit complement, CCK-8), EC50” value was 0.0476 µg/mL.
